Drawing on the supplement of paper PMC10567573, this text covers protein stability index for 94 variants.

B1: MLH1 (parent)
chain: YAHQMVRTDSREQKLDAFLQPLSK
B2: ESR2 (parent)
chain: KSCQACRLRKCYEVGMVKCGSRRE
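Further: lentivirally expressed fusions sorted by FACS into six bins by GFP to DsRed ratio, PSI derived from sequencing read proportions per bin multiplied by bin number.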

Variants of B1 are the subject of the first data set. The data set is described as follows: protein stability index of a GFP-peptide fusion (GPS, HEK-293T) (PSI 1-6); higher = more stable. Particulars: c terminus: a fixed tail appended.
For the variant YCHQMVRTDSREQKLDAFLQPLSK [A2C], the protein stability index was 2.09.

In the case of YMHQMVRTDSREQKLDAFLQPLSK [A2M], the protein stability index worked out at 3.12.

For the variant YLHQMVRTDSREQKLDAFLQPLSK [A2L], the protein stability index amounted to 2.84.

Consider YDHQMVRTDSREQKLDAFLQPLSK [A2D], for which the protein stability index was found to be 4.03.

On to YGHQMVRTDSREQKLDAFLQPLSK [A2G], for which the protein stability index stood at 3.19.

On to YHHQMVRTDSREQKLDAFLQPLSK [A2H], for which the protein stability index came to 1.8.

Regarding QAHQMVRTDSREQKLDAFLQPLSK [Y1Q], the protein stability index is 3.97.

Regarding WAHQMVRTDSREQKLDAFLQPLSK [Y1W], the protein stability index is 2.66.

For IAHQMVRTDSREQKLDAFLQPLSK [Y1I], the protein stability index worked out at 3.38.

For the variant DAHQMVRTDSREQKLDAFLQPLSK [Y1D], the protein stability index came to 4.12.

Regarding LAHQMVRTDSREQKLDAFLQPLSK [Y1L], the protein stability index stood at 3.16.

For HAHQMVRTDSREQKLDAFLQPLSK [Y1H], the protein stability index is 3.6.

On to FAHQMVRTDSREQKLDAFLQPLSK [Y1F], for which the protein stability index amounted to 2.12.

Consider GAHQMVRTDSREQKLDAFLQPLSK [Y1G], for which the protein stability index turned out to be 3.87.

Consider SAHQMVRTDSREQKLDAFLQPLSK [Y1S], for which the protein stability index was found to be 3.88.

As to RAHQMVRTDSREQKLDAFLQPLSK [Y1R], the protein stability index turned out to be 3.12.

With TAHQMVRTDSREQKLDAFLQPLSK [Y1T], the protein stability index is 3.87.

Regarding AAHQMVRTDSREQKLDAFLQPLSK [Y1A], the protein stability index was 3.48.

As for NAHQMVRTDSREQKLDAFLQPLSK [Y1N], the protein stability index was 2.95.

Turning to CAHQMVRTDSREQKLDAFLQPLSK [Y1C], the protein stability index worked out at 1.59.

For MAHQMVRTDSREQKLDAFLQPLSK [Y1M], the protein stability index was 3.11.

As for KAHQMVRTDSREQKLDAFLQPLSK [Y1K], the protein stability index was 3.88.

Variants of B2 are the subject of the next data set. The data set is described as above. Particulars: c terminus: a fixed tail appended.
Take KSCQACRLRKCYEVGMVKCGSRRQ [E24Q]: the protein stability index turned out to be 1.88.

Turning to KSCQACRLRKCYEVGMVKCGSRRL [E24L], the protein stability index was determined as 2.07.

On to KSCQACRLRKCYEVGMVKCGSRRV [E24V], for which the protein stability index turned out to be 2.19.

Regarding KSCQACRLRKCYEVGMVKCGSRRI [E24I], the protein stability index is 1.73.

As to KSCQACRLRKCYEVGMVKCGSRRW [E24W], the protein stability index was found to be 2.33.

Regarding KSCQACRLRKCYEVGMVKCGSRRS [E24S], the protein stability index was determined as 1.79.

As for KSCQACRLRKCYEVGMVKCGSRRC [E24C], the protein stability index is 2.28.

With KSCQACRLRKCYEVGMVKCGSRRD [E24D], the protein stability index came out at 2.28.

Turning to KSCQACRLRKCYEVGMVKCGSRRH [E24H], the protein stability index is 1.68.

As for KSCQACRLRKCYEVGMVKCGSRRK [E24K], the protein stability index worked out at 2.45.

Take KSCQACRLRKCYEVGMVKCGSRRP [E24P]: the protein stability index worked out at 2.74.

On to KSCQACRLRKCYEVGMVKCGSRRG [E24G], for which the protein stability index stood at 2.92.

For the variant KSCQACRLRKCYEVGMVKCGSRRM [E24M], the protein stability index is 1.67.

With KSCQACRLRKCYEVGMVKCGSRRN [E24N], the protein stability index came out at 2.02.

KSCQACRLRKCYEVGMVKCGSRRA [E24A]: the protein stability index worked out at 2.44.

Consider KSCQACRLRKCYEVGMVKCGSRRT [E24T], for which the protein stability index stood at 2.12.

Regarding KSCQACRLRKCYEVGMVKCGSRRF [E24F], the protein stability index amounted to 1.91.

For the variant KSCQACRLRKCYEVGMVKCGSRRY [E24Y], the protein stability index was 1.42.

Consider KSCQACRLRKCYEVGMVKCGSRRR [E24R], for which the protein stability index amounted to 2.24.

Turning to KSCQACRLRKCYEVGSVKCGSRRE [M16S], the protein stability index worked out at 2.44.

For KSCQACRLRKCYEVGNVKCGSRRE [M16N], the protein stability index worked out at 2.15.

As for KSCQACRLRKCYEVGRVKCGSRRE [M16R], the protein stability index is 2.4.

In the case of KSCQACRLRKCYEVGHVKCGSRRE [M16H], the protein stability index was 2.82.

In the case of KSCQACRLRKCYEVGLVKCGSRRE [M16L], the protein stability index amounted to 2.22.

Regarding KSCQACRLRKCYEVGGVKCGSRRE [M16G], the protein stability index amounted to 2.

As for KSCQACRLRKCYEVGTVKCGSRRE [M16T], the protein stability index is 2.14.

As for KSCQACRLRKCYEVGYVKCGSRRE [M16Y], the protein stability index came to 1.85.

KSCQACRLRKCYEVGIVKCGSRRE [M16I]: the protein stability index turned out to be 1.13.

For KSCQACRLRKCYEVGKVKCGSRRE [M16K], the protein stability index was determined as 2.67.

Turning to KSCQACRLRKCYEVGVVKCGSRRE [M16V], the protein stability index amounted to 1.74.

As to KSCQACRLRKCYEVGQVKCGSRRE [M16Q], the protein stability index was determined as 1.95.

As to KSCQACRLRKCYEVGPVKCGSRRE [M16P], the protein stability index is 1.96.

For the variant KSCQACRLRKCYEVGWVKCGSRRE [M16W], the protein stability index worked out at 1.88.

For the variant KSCQACRLRKCYEVGMVKCGSRME [R23M], the protein stability index stood at 1.98.

As for KSCQACRLRKCYEVGMVKCGSRSE [R23S], the protein stability index stood at 2.25.

In the case of KSCQACRLRKCYEVGMVKCGSRWE [R23W], the protein stability index came to 1.67.

As to KSCQACRLRKCYEVGMVKCGSRIE [R23I], the protein stability index is 2.43.

In the case of KSCQACRLRKCYEVGMVKCGSRVE [R23V], the protein stability index came out at 2.41.

In the case of KSCQACRLRKCYEVGMVKCGSRDE [R23D], the protein stability index came to 2.48.

As for KSCQACRLRKCYEVGMVKCGSRGE [R23G], the protein stability index came out at 1.79.

Turning to KSCQACRLRKCYEVGMVKCGSRYE [R23Y], the protein stability index came out at 2.09.

KSCQACRLRKCYEVGMVKCGSRCE [R23C]: the protein stability index came out at 2.39.

Take KSCQACRLRKCYEVGMVKCGSRTE [R23T]: the protein stability index was found to be 1.85.

Turning to KSCQACRLRKCYEVGMVKCGSRPE [R23P], the protein stability index was 2.2.

For the variant KSCQACRLRKCYEVGMVKCGSRFE [R23F], the protein stability index came out at 2.51.

KSCQACRLRKCYEVGMVKCGSRAE [R23A]: the protein stability index amounted to 1.61.

Turning to KSCQACRLRKCYEVGMVKCGSRLE [R23L], the protein stability index is 1.58.

Take KSCQACRLRKCYEVGMVKCGSRNE [R23N]: the protein stability index was 2.17.

For KSCQACRLRKCYEVGMVKCGSRHE [R23H], the protein stability index came to 1.96.

KSCQACRLRKCYEVGMVKCGSRQE [R23Q]: the protein stability index worked out at 2.21.

KSCQACRLRKCYEVGMVKCGSRKE [R23K]: the protein stability index stood at 1.96.

Turning to KSCQACRLRKCYEVGMVKCGSREE [R23E], the protein stability index amounted to 2.33.

KSCQACRLRKCYEVGMVQCGSRRE [K18Q]: the protein stability index is 1.7.

As for KSCQACRLRKCYEVGMVPCGSRRE [K18P], the protein stability index was 1.72.

Consider KSCQACRLRKCYEVGMVDCGSRRE [K18D], for which the protein stability index was determined as 2.2.

Turning to KSCQACRLRKCYEVGMVMCGSRRE [K18M], the protein stability index was determined as 1.67.

For the variant KSCQACRLRKCYEVGMVECGSRRE [K18E], the protein stability index came out at 2.09.

As to KSCQACRLRKCYEVGMVCCGSRRE [K18C], the protein stability index was found to be 2.16.

For KSCQACRLRKCYEVGMVTCGSRRE [K18T], the protein stability index came out at 1.82.

Take KSCQACRLRKCYEVGMVFCGSRRE [K18F]: the protein stability index was found to be 1.51.

On to KSCQACRLRKCYEVGMVLCGSRRE [K18L], for which the protein stability index was 1.73.

With KSCQACRLRKCYEVGMVICGSRRE [K18I], the protein stability index was 1.49.

Turning to KSCQACRLRKCYEVGMVSCGSRRE [K18S], the protein stability index came to 2.85.

Regarding KSCQACRLRKCYEVGMVWCGSRRE [K18W], the protein stability index was determined as 1.35.

As for KSCQACRLRKCYEVGMVRCGSRRE [K18R], the protein stability index came out at 2.31.

KSCQACRLRKCYEVGMVVCGSRRE [K18V]: the protein stability index came out at 2.79.

For KSCQACRLRKCYEVGMVYCGSRRE [K18Y], the protein stability index was 1.49.

Regarding KSCQACRLRKCYEVGMVGCGSRRE [K18G], the protein stability index turned out to be 1.8.

Consider KSCQACRLRKCYEVGMVNCGSRRE [K18N], for which the protein stability index was determined as 2.39.

On to KSCQACRLRKCYEVGMVACGSRRE [K18A], for which the protein stability index was 1.89.

As to KSCQACRLRKCYEVGMVHCGSRRE [K18H], the protein stability index stood at 2.33.

For the variant KSCQACRLRKCYEVGMVKCPSRRE [G20P], the protein stability index came out at 1.84.
